Assay results: patent US7329737 (DYAX, dated 2008)
Residue numbers refer to the chain shown, from its start.

B1: M0098-E09 (Fab, V domains shown)
VH: EVQLLESGGGLVQPGGSLRLSCAASGFTFSRYGMQWVRQAPGKGLEWVSYIYPSGGGTVYADSVKGRFTISRDNSKNTLYLQMNSLRAEDTAVYYCARRVAVAGSWYYYYYGMDVWGQGTTVTVSS
VL: DIQMTQSPSSVSASVGDSVTISCWTIYDISSWLAWYQQRPGQAPKLLIYAASRLATGVPSRFRGSGSGTDFTLTITNLQPEDVATYYCQQTKDFPLTFGGGTRVDLKR
B2: M0134-D07 (Fab, V domains shown)
VH: EVQLLESGGGLVQPGGSLRLSCAASGFTFSRYFMIWVRQAPGKGLEWVSSIVPSGGPTRYADSVKGRFTISRDNSKNTLYLQMNSLRAEDTAVYYCARRGPVYYYDSSGSHSAFDIWGQGTMVTVSS
VL: DIQMTQSPSSLSASVGDRVTITCRASQGIRNDLGWYQQKPGKAPKLLIYAASSLQSGVPSRFSGSGSGTDFTLTISSLQPEDFATYYCLQDYNYPRTFGQGTKVEIKR
B3: M0139-A09 (Fab, V domains shown)
VH: EVQLLESGGGLVQPGGSLRLSCAASGFTFSWYFMVWVRQAPGKGLEWVSGIGPSGGLTTYADSVKGRFTISRDNSKNTLYLQMNSLRAEDTAVYYCARSDWLNYWGQGTLVTVSS
VL: DIVMTQTPPSLPVNPGEPASISCRSSQSLVYSDGNTYLNWFQQRPGQSPRRLIYKVSNRDSGVPDRFSGSGSGTDFTLKISRVEAEDVGVYYCMQGTHWQRLTFGGGTKVEIKR
B4: M0112-D07 (Fab, V domains shown)
VH: EVQLLESGGGLVQPGGSLRLSCAASGFTFSFYSMSWVRQAPGKGLEWVSRIRPSGGRTDYADSVKGRFTISRDNSKNTLYLQMNSLRAEDTAVYYCARDRLYYYGSGSYYYGAFDIWGQGTMVTVSS
VL: DIQMTQSPSSLSASVGDRVTITCRASQTIRTYLNWYQQKPGIAPKFLIYDASNLQTGVPSRFSGSGSGTHFTLTISSLQPEDFGTYYCQQSYGGPPTFGRGTKIEIKR
B5: M0117-F04 (Fab, V domains shown)
VH: EVQLLESGGGLVQPGGSLRLSCAASGFTFSMYVMNWVRQAPGKGLEWVSRIGSSGGGTLYADSVKGRFTISRDNSKNTLYLQMNSLRAEDTAVYYCARVSVYRIRNYYYYAMDVWGQGTTVTVSS
VL: DIQMTQSPSSLSASVGDRVTITCRASQGIGNYLAWYQQKPGKAPNLLIYKTSNLQSGVPSRFRGSGSGTEFTLTITSVQPDDFATYFCQRYDSYSQYIFGQGTKLETKR
B6: M0102-H11 (Fab, V domains shown)
VH: EVQLLESGGGLVQPGGSLRLSCAASGFTFSKYPMTWVRQAPGKGLEWVSSISSSGGKTQYADSVKGRFTISRDNSKNTLYLQMNSLRAEDTAVYYCTRGGSSTLYFMDVWGQGTTVTVSS
VL: DIQMTQSPATLSLSPGERATLSCRASQSVSSYLAWYQQKPGQAPRLLIYGASSRATGIPDRFSGSGSGTDFTLTISSLEPEDFAVYYCQQRGGWPLTFGGGTKVEIRR
B7: M0138-C09 (Fab, V domains shown)
VH: EVQLLESGGGLVQPGGSLRLSCAASGFTFSPYRMSWVRQAPGKGLEWVSVISPSGGITEYADSVKGRFTISRDNSKNTLYLQMNSLRAEDTAVYYCAKHERGSGYYVTPPAGAFDIWGQGTMVTVSS
VL: AQSELTQPASVAGSPGQSITISCTGTSSDVGLYNFVSWYQQHPGKAPKLMIYDVSRRPSGVSNRFSASKSGTRASLTVSGLQAEDEADYYCSSYAGSNNYVFGTGTKVTVLG
B8: M0139-F04 (Fab, V domains shown)
VH: EVQLLESGGGLVQPGGSLRLSCAASGFTFSRYYMEWVRQAPGKGLEWVSSISSSGGSTEYADSVKGRFTISRDNSKNTLYLQMNSLRAEDTAVYYCAKDITPGGGSGFRLPKNYYYYGMDVWGQGTTVTVSS
VL: DIQMTQSPSSLSASVGDRVTITCRASQAISTNLNWYQQKPGKAPKLLIYAASSLQSGVPSRFIGSGSGTDFTLTISSLHPEDFATYHCQQTFSPPHTFGQGTKVEIQR
B9: M0102-G12 (Fab, V domains shown)
VH: B8 VH with R31K, Y33K, E35V, S52Y, S53P, S57I, E59A, V93M
VL: AQSELTQPPSASGTPGQRVTISCSGTLSNIGTNIVSWFQQLPGTAPKLLIYNDHRRPSGVPDRFSGSKSATSASLAISGLQSEDEADYYCAAWDDSLNGVVFGGGTKLTVLS
B10: M0139-E12 (Fab, V domains shown)
VH: EVQLLESGGGLVQPGGSLRLSCAASGFTFSWYSMNWVRQAPGKGLEWVSSIGPSGGGTKYADSVKGRFTISRDNSKNTLYLQMNSLRAEDTAVYYCASRGQRKQWLPPNGAFDIWGQGTMVTVSS
VL: DIQMTQSPSSVSASVGDRVTMTCRASRGISNWLAWYQQKPGKAPELLIHSASTLHAGVPSRFSGSGSGTDFTLTISSLQPGDFATYYCQEGNSFPYTFGQGTNLQIKR
B11: M0136-E10 (Fab, V domains shown)
VH: EVQLLESGGGLVQPGGSLRLSCAASGFTFSPYNMAWVRQAPGKGLEWVSSIWPSGGRTRYADSVKGRFTISRDNSKNTLYLQMNSLRAEDTAVYYCAKGVRSSGLLERGRVYDAFDIWGQGTMVTVSS
VL: DIQMTQSPGTLSLSPGERATLSCRASQSVTTFLAWYQRKPGQAPRLLIYGASSRAADIPDRFSGSGSGTDFTLTISRLEPEDLAVYYCQQYRFSPPTFGPGTTVDIRR
B12: M0114-G06 (Fab, V domains shown)
VH: EVQLLESGGGLVQPGGSLRLSCAASGFTFSYYEMEWVRQAPGKGLEWVSSIRPSGGRTVYADSVKGRFTISRDNSKNTLYLQMNSLRAEDTAVYYCAKGRSNYYGSGSYSPKYFQHWGQGTLVTVSS
VL: DIQMTQSPSSLSASVGDRVTITCRASQGISSWLAWYQQRPERAPKSLIYAASSLERGVPSRFRGSGSGTDFTLTISSLQPEDFGTYYCQQYHNFPLTFGGGTRVEINR
B13: M0136-A07 (Fab, V domains shown)
VH: EVQLLESGGGLVQPGGSLRLSCAASGFTFSWYHMYWVRQAPGKGLEWVSYIRPSGGNTNYADSVKGRFTISRDNSKNTLYLQMNSLRAEDTAMYYCARDRRGYSSSKGYYYYGMDVWGQGTTVTVSS
VL: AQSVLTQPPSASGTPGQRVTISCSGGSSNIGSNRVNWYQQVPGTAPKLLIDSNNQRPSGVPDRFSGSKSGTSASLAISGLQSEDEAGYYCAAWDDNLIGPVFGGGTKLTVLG
notes: No HC-136-A07 entry is printed
B14: M0097-G01 (Fab, V domains shown)
VH: EVQLLESGGGLVQPGGSLRLSCAASGFTFSPYYMQWVRQAPGKGLEWVSGISSSGGSTQYADSVKGRFTISRDNSKNTLYLQMNSLRAEDTAVYYCARSQRRTYYPNFGDAFDIWGQGTMVTVSS
VL: DIQMTQSPSSLSASVGDRVTITCRASQGIGNYLVWYQHKPGNVPRVLIYAASTLQSGVPSRFRGSGSGTDFTLTISGLQPEDVATYYCQKYDGAPFTFGPGTKVDLKR
B15: M0133-E02 (Fab, V domains shown)
VH: EVQLLESGGGLVQPGGSLRLSCAASGFTFSWYTMTWVRQAPGKGLEWVSSIYPSGGHTSYADSVKGRFTISRDNSKNTLYLQMNSLRAEDTAVYYCAKDTRVGPWLVRAPLDYWGQGTLVTVSS
VL: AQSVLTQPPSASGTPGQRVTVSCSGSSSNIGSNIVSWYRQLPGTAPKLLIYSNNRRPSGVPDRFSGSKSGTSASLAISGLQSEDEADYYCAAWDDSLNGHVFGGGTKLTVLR
B16: M0138-G11 (Fab, V domains shown)
VH: B15 VH with L79F
VL: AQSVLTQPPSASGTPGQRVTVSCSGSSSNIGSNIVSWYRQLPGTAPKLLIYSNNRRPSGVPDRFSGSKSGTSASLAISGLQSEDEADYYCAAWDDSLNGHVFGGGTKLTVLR

target: T1, hK1 (human tissue kallikrein 1), recombinant (human, UniProt P06870 25-262); test: SPR
T1 construct: Expressed in P. pastoris from KLK1 cDNA and purified; enzymatically active; also called KLK1; Recombinant (Pichia) Kallikrein

Kd [nM] | koff [s⁻¹] | kon [M⁻¹ s⁻¹] | Binder
1.91 | 0.00159 | 836000 | B1
2.69 | 0.000138 | 51300 | B2
5.48 | 0.00106 | 194000 | B3
5.81 | 0.000781 | 134000 | B4
6.61 | 0.00197 | 298000 | B5
3.24 | 0.00741 | 2.29e+06 | B6
8.78 | 0.00153 | 175000 | B7
7.27 | 0.00134 | 184000 | B8
5.28 | 0.000442 | 83700 | B9
1.87 | 0.000233 | 125000 | B10
9.66 | 0.00106 | 110000 | B11
0.999 | 0.000166 | 167000 | B12
7.98 | 0.00258 | 323000 | B13
4.8 | 0.000832 | 173000 | B14
6.42 | 0.00146 | 227000 | B15
6.19 | 0.00161 | 260000 | B16

target: T1, hK1 (human tissue kallikrein 1), …; test: SPR, biotinylated hK1 on streptavidin chip; Fab 50 nM after DX-2300 50 nM (competitor DX-2300)
Text: Epitope grouping by SPR. Biotinylated hK1 was captured on a streptavidin coated chip to a final ligand density of 88 RU. […] The signal at the end of the injection of the Fab alone is R2.

Fab Signal following DX-2300 (R1) | Binder
8.5 | B1
2.3 | B2
25.7 | B3
3 | B4
6.7 | B5
4.8 | B12
5 | B13

target: T1, hK1 (human tissue kallikrein 1), …; test: cell-based or functional assay

IC50 (nM), inhibition of hK1 hydrolysis of Pro-Phe-Arg-AMC [nM] | IC50 (nM), inhibition of hK1 enzyme activity [nM] | Binder
2.5 |  | B1
10.1 |  | B2
 | 34 | B3
 | > 120 | B4
5.2 |  | B5
4.5 |  | B6
10.9 |  | B7
20.7 |  | B8
3.3 |  | B9
2.9 |  | B10
 | 22 | B11
1.2 |  | B12
 | 25 | B13
7.2 |  | B14
2.4 |  | B15
 | 28 | B16
